Values belong to the substance of their own block, whether it stands above or below them.
Key:
[1] = molecular target: collagen IV NC1 domains of the NC1 hexamer from comb jelly (comb jelly (Mnemiopsis leidyi)); test: SDS-PAGE (SDS resistance of the native hexamer); partially purified NC1 hexamer (SEC hexamer fraction); SDS-PAGE with 150 mM NaCl; sample at room temperature; Western blot with JK2 or TCE in-gel visualization
[2] = molecular target: collagen IV NC1 domains of the NC1 hexamer from comb jelly (comb jelly (Mnemiopsis leidyi)); test: SDS-PAGE (SDS resistance of the native hexamer); partially purified NC1 hexamer (SEC hexamer fraction); regular SDS-PAGE without Cl^− supplement; sample at room temperature; Western blot with JK2 or TCE in-gel visualization
[3] = molecular target: collagen IV NC1 domains of the NC1 hexamer from cicada (cicada (Magicicada spp)); test: SDS-PAGE (SDS resistance of the native hexamer); straight collagenase digest of tissue or animals; regular SDS-PAGE without Cl^− supplement; sample at room temperature; Western blot with JK2
[4] = molecular target: collagen IV NC1 domains of the NC1 hexamer from cicada (cicada (Magicicada spp)); test: SDS-PAGE (SDS resistance of the native hexamer); straight collagenase digest of tissue or animals; SDS-PAGE with 150 mM NaCl; sample at room temperature; Western blot with JK2
[5] = molecular target: collagen IV NC1 domains of the NC1 hexamer from moon jellyfish (moon jellyfish (Aurelia aurita)); test: SDS-PAGE (SDS resistance of the native hexamer); partially purified NC1 hexamer (SEC hexamer fraction); SDS-PAGE with 150 mM NaCl; sample at room temperature; Western blot with JK2 or TCE in-gel visualization
[6] = molecular target: collagen IV NC1 domains of the NC1 hexamer from Caenorhabditis elegans (Caenorhabditis elegans); test: as above
[7] = molecular target: collagen IV NC1 domains of the NC1 hexamer from Caenorhabditis elegans (Caenorhabditis elegans); test: SDS-PAGE (SDS resistance of the native hexamer); partially purified NC1 hexamer (SEC hexamer fraction); regular SDS-PAGE without Cl^− supplement; sample at room temperature; Western blot with JK2 or TCE in-gel visualization
[8] = molecular target: collagen IV NC1 domains of the NC1 hexamer from starlet sea anemone (starlet sea anemone (Nematostella vectensis)); test: SDS-PAGE (SDS resistance of the native hexamer); partially purified NC1 hexamer (SEC hexamer fraction); SDS-PAGE with 150 mM NaCl; sample at room temperature; Western blot with JK2 or TCE in-gel visualization
[9] = molecular target: collagen IV NC1 domains of the NC1 hexamer from mouse kidney (mouse (Mus musculus)); test: SDS-PAGE (SDS resistance of the native hexamer); straight collagenase digest of tissue or animals; SDS-PAGE with 150 mM NaCl; sample at room temperature; Western blot with JK2
[10] = molecular target: collagen IV NC1 domains of the NC1 hexamer from brown planaria (brown planaria (Dugesia tigrina)); test: SDS-PAGE (SDS resistance of the native hexamer); partially purified NC1 hexamer (SEC hexamer fraction); SDS-PAGE with 150 mM NaCl; sample at room temperature; Western blot with JK2 or TCE in-gel visualization
[11] = molecular target: collagen IV NC1 domains of the NC1 hexamer from brown planaria (brown planaria (Dugesia tigrina)); test: SDS-PAGE (SDS resistance of the native hexamer); partially purified NC1 hexamer (SEC hexamer fraction); regular SDS-PAGE without Cl^− supplement; sample at room temperature; Western blot with JK2 or TCE in-gel visualization
[12] = molecular target: collagen IV NC1 domains of the NC1 hexamer from American lobster (American lobster (Homarus americanus)); test: SDS-PAGE (SDS resistance of the native hexamer); straight collagenase digest of tissue or animals; regular SDS-PAGE without Cl^− supplement; sample at room temperature; Western blot with JK2
[13] = molecular target: collagen IV NC1 domains of the NC1 hexamer from American lobster (American lobster (Homarus americanus)); test: SDS-PAGE (SDS resistance of the native hexamer); straight collagenase digest of tissue or animals; SDS-PAGE with 150 mM NaCl; sample at room temperature; Western blot with JK2
[14] = molecular target: collagen IV NC1 domains of the NC1 hexamer from rotifers (rotifer (Brachionus plicatilis)); test: SDS-PAGE (SDS resistance of the native hexamer); partially purified NC1 hexamer (SEC hexamer fraction); SDS-PAGE with 150 mM NaCl; sample at room temperature; Western blot with JK2 or TCE in-gel visualization
[15] = molecular target: collagen IV NC1 domains of the NC1 hexamer from rotifers (rotifer (Brachionus plicatilis)); test: SDS-PAGE (SDS resistance of the native hexamer); partially purified NC1 hexamer (SEC hexamer fraction); regular SDS-PAGE without Cl^− supplement; sample at room temperature; Western blot with JK2 or TCE in-gel visualization
[16] = molecular target: collagen IV NC1 domains of the NC1 hexamer from Ascaris suum (Ascaris suum); test: SDS-PAGE (SDS resistance of the native hexamer); purified NC1 hexamer; Tris-glycine SDS-PAGE with 150 mM NaCl in running buffer and sample buffer; sample at room temperature, not boiled; Coomassie, TCE or Western blot
[17] = molecular target: collagen IV NC1 domains of the NC1 hexamer from Ascaris suum (Ascaris suum); test: SDS-PAGE (SDS resistance of the native hexamer); purified NC1 hexamer; regular SDS-PAGE without Cl^− supplement; sample at room temperature, not boiled; Coomassie, TCE or Western blot
[18] = molecular target: collagen IV NC1 domains of the NC1 hexamer from marmoset kidney (common marmoset (Callithrix jacchus)); test: SDS-PAGE (SDS resistance of the native hexamer); partially purified NC1 hexamer (SEC hexamer fraction); SDS-PAGE with 150 mM NaCl; sample at room temperature; Western blot with JK2 or TCE in-gel visualization
[19] = molecular target: collagen IV NC1 domains of the NC1 hexamer from horseshoe crab flatworm (horseshoe crab flatworm (Bdelloura candida)); test: as above
[20] = molecular target: collagen IV NC1 domains of the NC1 hexamer from brine shrimp (brine shrimp (Artemia salina)); test: SDS-PAGE (SDS resistance of the native hexamer); straight collagenase digest of tissue or animals; regular SDS-PAGE without Cl^− supplement; sample at room temperature; Western blot with JK2
[21] = molecular target: collagen IV NC1 domains of the NC1 hexamer from brine shrimp (brine shrimp (Artemia salina)); test: SDS-PAGE (SDS resistance of the native hexamer); straight collagenase digest of tissue or animals; SDS-PAGE with 150 mM NaCl; sample at room temperature; Western blot with JK2
[22] = molecular target: collagen IV NC1 domains of the NC1 hexamer from fruit fly (fruit fly (Drosophila melanogaster)); test: SDS-PAGE (SDS resistance of the native hexamer); purified NC1 hexamer; Tris-glycine SDS-PAGE with 150 mM NaCl in running buffer and sample buffer; sample at room temperature, not boiled; Coomassie, TCE or Western blot
[23] = molecular target: collagen IV NC1 domains of the NC1 hexamer from fruit fly (fruit fly (Drosophila melanogaster)); test: SDS-PAGE (SDS resistance of the native hexamer); purified NC1 hexamer; regular SDS-PAGE without Cl^− supplement; sample at room temperature, not boiled; Coomassie, TCE or Western blot
[24] = molecular target: collagen IV NC1 domains of the NC1 hexamer from condylactis anemone (condylactis anemone (Condylactis gigantea)); test: SDS-PAGE (SDS resistance of the native hexamer); partially purified NC1 hexamer (SEC hexamer fraction); SDS-PAGE with 150 mM NaCl; sample at room temperature; Western blot with JK2 or TCE in-gel visualization

Substance: collagen IV NC1 domains of the NC1 hexamer from comb jelly (domain or fragment)
stoichiometry N [1]: 6 | stoichiometry N [2]: 6

Substance: collagen IV NC1 domains of the NC1 hexamer from Caenorhabditis elegans (domain or fragment)
stoichiometry N [6]: 6 | stoichiometry N [7]: 6

Substance: collagen IV NC1 domains of the NC1 hexamer from mouse kidney (domain or fragment)
stoichiometry N [9]: 6

Substance: collagen IV NC1 domains of the NC1 hexamer from rotifers (domain or fragment)
stoichiometry N [14]: 6 | stoichiometry N [15]: 6

Substance: collagen IV NC1 domains of the NC1 hexamer from Ascaris suum (domain or fragment)
stoichiometry N [16]: 6 | stoichiometry N [17]: 6

Substance: collagen IV NC1 domains of the NC1 hexamer from horseshoe crab flatworm (domain or fragment)
stoichiometry N [19]: 6

Substance: collagen IV NC1 domains of the NC1 hexamer from brine shrimp (domain or fragment)
stoichiometry N [20]: 6 | stoichiometry N [21]: 6

Substance: collagen IV NC1 domains of the NC1 hexamer from fruit fly (domain or fragment)
stoichiometry N [22]: 6 | stoichiometry N [23]: 6

The remaining lines, values ahead:

stoichiometry N [3]: 6 | stoichiometry N [4]: 6
Substance: collagen IV NC1 domains of the NC1 hexamer from cicada (domain or fragment)

stoichiometry N [5]: 6
Substance: collagen IV NC1 domains of the NC1 hexamer from moon jellyfish (domain or fragment)

stoichiometry N [8]: 6
Substance: collagen IV NC1 domains of the NC1 hexamer from starlet sea anemone (domain or fragment)

stoichiometry N [10]: 6 | stoichiometry N [11]: 6
Substance: collagen IV NC1 domains of the NC1 hexamer from brown planaria (domain or fragment)

stoichiometry N [12]: 6 | stoichiometry N [13]: 6
Substance: collagen IV NC1 domains of the NC1 hexamer from American lobster (domain or fragment)

stoichiometry N [18]: 6
Substance: collagen IV NC1 domains of the NC1 hexamer from marmoset kidney (domain or fragment)

stoichiometry N [24]: 6
Substance: collagen IV NC1 domains of the NC1 hexamer from condylactis anemone (domain or fragment)
